In assay [1] the target is T1, cynomolgus CD45 on live cells (primary cynomolgus PBMCs) (cynomolgus monkey).
T1 construct: Endogenous CD45 on PBMCs; also called cyno CD45; Cyno PBMC
T1 chain: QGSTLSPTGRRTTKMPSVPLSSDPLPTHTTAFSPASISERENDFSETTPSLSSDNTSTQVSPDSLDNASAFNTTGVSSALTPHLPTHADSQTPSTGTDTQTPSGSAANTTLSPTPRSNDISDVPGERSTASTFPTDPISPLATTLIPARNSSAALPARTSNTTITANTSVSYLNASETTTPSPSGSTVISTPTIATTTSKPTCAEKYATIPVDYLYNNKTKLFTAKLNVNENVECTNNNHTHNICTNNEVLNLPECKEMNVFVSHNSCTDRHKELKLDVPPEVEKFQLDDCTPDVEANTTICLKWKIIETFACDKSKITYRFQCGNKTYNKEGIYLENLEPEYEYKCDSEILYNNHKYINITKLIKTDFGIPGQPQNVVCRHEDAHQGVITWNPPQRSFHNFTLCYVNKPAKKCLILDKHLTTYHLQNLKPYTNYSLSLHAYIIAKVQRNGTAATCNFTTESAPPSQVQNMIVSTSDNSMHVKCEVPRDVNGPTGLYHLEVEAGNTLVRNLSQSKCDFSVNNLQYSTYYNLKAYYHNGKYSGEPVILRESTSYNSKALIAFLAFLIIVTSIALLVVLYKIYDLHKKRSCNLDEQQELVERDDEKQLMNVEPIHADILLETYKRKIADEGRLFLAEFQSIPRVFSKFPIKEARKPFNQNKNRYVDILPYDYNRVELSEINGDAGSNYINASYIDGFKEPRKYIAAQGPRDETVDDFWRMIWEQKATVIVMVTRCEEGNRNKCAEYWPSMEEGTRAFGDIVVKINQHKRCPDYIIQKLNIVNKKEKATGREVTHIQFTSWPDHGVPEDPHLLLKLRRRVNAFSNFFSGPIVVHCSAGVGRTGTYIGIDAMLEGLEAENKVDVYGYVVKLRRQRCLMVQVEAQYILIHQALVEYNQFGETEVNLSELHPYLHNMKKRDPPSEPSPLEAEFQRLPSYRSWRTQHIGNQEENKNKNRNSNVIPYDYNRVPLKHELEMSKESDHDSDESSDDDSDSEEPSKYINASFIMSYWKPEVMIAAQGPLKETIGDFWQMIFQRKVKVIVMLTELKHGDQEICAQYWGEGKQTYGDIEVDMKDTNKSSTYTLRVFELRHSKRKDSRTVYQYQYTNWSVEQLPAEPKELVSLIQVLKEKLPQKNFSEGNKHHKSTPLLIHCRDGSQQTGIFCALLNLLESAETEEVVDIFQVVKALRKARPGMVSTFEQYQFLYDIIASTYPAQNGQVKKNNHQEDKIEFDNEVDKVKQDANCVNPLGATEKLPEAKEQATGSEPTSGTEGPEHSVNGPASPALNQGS
Kind of assay: flow cytometry on PBMCs; cyno EC50 against human EC50.

Assay [2] deals with T1, cynomolgus CD45 on live cells (primary …). The assay is described as above.
Assay [3] has as its target T2, human CD45 on live cells (REH-1 cells, primary human PBMCs) (human, UniProt P08575 26-1306).
T2 construct: Endogenous CD45
T2 sequence: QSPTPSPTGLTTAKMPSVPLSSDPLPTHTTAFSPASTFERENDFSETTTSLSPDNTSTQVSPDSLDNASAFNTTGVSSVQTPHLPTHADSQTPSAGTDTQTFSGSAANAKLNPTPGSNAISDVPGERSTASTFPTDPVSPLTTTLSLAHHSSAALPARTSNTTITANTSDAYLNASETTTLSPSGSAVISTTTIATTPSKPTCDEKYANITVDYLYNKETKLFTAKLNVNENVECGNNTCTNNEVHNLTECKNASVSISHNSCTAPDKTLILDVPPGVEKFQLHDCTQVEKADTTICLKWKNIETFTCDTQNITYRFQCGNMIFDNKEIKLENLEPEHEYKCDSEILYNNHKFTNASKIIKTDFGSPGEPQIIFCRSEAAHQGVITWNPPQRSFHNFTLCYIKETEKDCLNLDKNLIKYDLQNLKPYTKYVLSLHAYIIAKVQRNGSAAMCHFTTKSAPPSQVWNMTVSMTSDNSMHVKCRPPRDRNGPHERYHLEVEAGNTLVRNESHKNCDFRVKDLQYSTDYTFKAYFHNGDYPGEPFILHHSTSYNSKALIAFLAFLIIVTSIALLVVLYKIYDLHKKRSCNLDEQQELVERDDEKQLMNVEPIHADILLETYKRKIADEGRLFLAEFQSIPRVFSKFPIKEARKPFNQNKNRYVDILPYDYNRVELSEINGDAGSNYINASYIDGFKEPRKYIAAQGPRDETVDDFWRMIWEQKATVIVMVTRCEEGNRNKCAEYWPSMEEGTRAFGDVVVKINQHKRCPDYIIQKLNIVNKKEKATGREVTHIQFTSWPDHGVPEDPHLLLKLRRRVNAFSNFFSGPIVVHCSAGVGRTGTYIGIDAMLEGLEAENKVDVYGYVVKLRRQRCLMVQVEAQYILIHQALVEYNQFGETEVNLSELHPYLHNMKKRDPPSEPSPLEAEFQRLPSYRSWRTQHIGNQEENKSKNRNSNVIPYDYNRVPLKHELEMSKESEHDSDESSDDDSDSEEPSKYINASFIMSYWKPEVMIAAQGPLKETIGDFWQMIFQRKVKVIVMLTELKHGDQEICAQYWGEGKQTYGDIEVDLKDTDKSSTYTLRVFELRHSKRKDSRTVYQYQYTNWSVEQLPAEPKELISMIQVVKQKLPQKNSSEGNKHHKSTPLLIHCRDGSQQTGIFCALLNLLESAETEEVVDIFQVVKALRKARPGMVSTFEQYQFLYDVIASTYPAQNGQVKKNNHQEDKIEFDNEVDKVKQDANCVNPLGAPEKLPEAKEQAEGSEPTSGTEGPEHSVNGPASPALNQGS
Kind of assay: flow cytometry on human PBMCs, overnight 37 C, AF488 anti-human IgG. (In general: Flow cytometry measures light scatter and fluorescence of single cells or particles in a stream.)

The target in assay [4] is T1, cynomolgus CD45 on live cells (primary …). Kind of assay: flow cytometry on cynomolgus PBMCs, overnight 37 C, AF488 anti-human IgG.
Assay [5] shares this target. The description is as above.
In assay [6] the target is T3, purified human CD45 ectodomain (human CD45RABC antigen) (human, UniProt P08575 26-577).
T3 construct: also called hCD45
T3 sequence: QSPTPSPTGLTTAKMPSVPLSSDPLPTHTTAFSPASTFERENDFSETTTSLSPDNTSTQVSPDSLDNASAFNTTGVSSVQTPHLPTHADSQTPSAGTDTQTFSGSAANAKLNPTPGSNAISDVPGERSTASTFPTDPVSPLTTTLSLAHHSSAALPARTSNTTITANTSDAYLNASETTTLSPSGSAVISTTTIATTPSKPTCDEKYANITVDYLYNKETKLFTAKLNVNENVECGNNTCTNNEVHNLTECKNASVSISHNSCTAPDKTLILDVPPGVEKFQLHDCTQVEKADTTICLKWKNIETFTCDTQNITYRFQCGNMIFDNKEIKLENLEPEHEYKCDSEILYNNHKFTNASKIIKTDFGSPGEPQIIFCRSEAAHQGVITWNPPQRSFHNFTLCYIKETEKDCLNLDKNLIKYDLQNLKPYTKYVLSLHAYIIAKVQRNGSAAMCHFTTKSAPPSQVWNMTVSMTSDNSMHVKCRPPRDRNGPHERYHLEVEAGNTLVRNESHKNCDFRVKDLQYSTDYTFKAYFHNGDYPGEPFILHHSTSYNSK
Kind of assay: BLI (Octet Red96), antibody on anti-human Fc sensor, 100 nM human CD45 ectodomain, 1:1 fit. (In general: BLI is a label-free optical method that tracks binding on a fibre tip over time.)

The target in assay [7] is T2, human CD45 on live cells (REH-1 cells, …). Kind of assay: flow cytometry on human PBMCs, overnight 37 C, AF488 anti-human IgG. The source holds these as a separate data set.
The target of assay [8] is T3, purified human CD45 ectodomain (human …). Kind of assay: BLI (Octet Red96), Table 11; the sentence does not name the species of CD45.

Read-outs that look alike come from different tables or passages of the source.

B1: Antibody C (AbC) (antibody, IgG1, V domains shown)
VH: EVQLVESGGGLVQPGGSLRLSCAASGFTFNNYWMTWVRQAPGKGLEWVSSISSSGGSIYYPDSVKDRFTISRDNAKNSLYLQMNSLRAEDMAVYYCARLYYYDGGGDAWGQGTLVTVSS
VL: GIQMTQSPSSLSASVGDRVTITCKASQDINKYLDWYQQKPGKAPKLLIYNTNNLHTGIPSRFSGSGSGTDYTLTISSLQPEDFATYYCLQHISRWTFGGGTKVEIK
notes: also called humanized clone AbC
For B1, the “Fold Cyno vs Human (EC50)” value in assay [1] worked out at 1.7 fold. Moreover, in assay [2], the “Fold Cyno v/s Human (EC50)” value came out at 2.1 fold. Moreover, the concentration for a half-maximal effect (EC50) (commonly the midpoint of the concentration-response curve) in assay [3] worked out at 510 pM; in assay [4], 880 pM; in assay [5], 1340 pM; in assay [7] it was 640 pM. Also, in assay [6], the Kd (as a rule, a measure of binding affinity in units of concentration) turned out to be 2930 pM. Further, the dissociation rate constant (koff) (usually a measure of how fast the partners let go of each other) in assay [6] came to 0.000149 s⁻¹. The kon (commonly the second-order rate constant of association) in assay [6] came out at 50800 M⁻¹ s⁻¹. In assay [8], the “fold improved affinity over the parent clone C” value was greater than 4 fold.

Values taken from patent US20220267441A1 (VOR BIOPHARMA, published 2022).
